The record followed here is US20030228623A1.

“And” between values parts separate entries of the source, which are not always exact repeats. Equal values may be shown once.

The target of test [1] is modified streptavidin Stv-38. Put plainly: phage on microtiter wells coated with Stv-38, washed, eluted with 3 mM biotin, plated on TG1 cells.
Test [2] addresses modified streptavidin Stv-38. Put plainly: phage on microtiter wells coated with Stv-38, washed, eluted with 3 mM biotin, plated on TG1 cells; input 1,590,500.
Test [3] concerns the target streptavidin (streptavidin-coated magnetic beads, Dynal) (UniProt P22629). Kind of test: phage incubated with streptavidin-coated beads, washed, released with Factor Xa, plated on TG1 cells; 97,500 phage used.
For test [4] the target is unchanged. Put plainly: phage incubated with streptavidin-coated beads, washed, released with Factor Xa, plated on TG1 cells.
Test [5] deals with modified streptavidin Stv-38. Put plainly: phage on microtiter wells coated with Stv-38, washed, eluted with 3 mM biotin, plated on TG1 cells; input 159,500.
Test [6] concerns the target modified streptavidin Stv-38. Put plainly: phage on microtiter wells coated with Stv-38, washed, eluted with 3 mM biotin, plated on TG1 cells; input 250,000.
Test [7] deals with streptavidin (streptavidin-coated magnetic beads, Dynal) (UniProt P22629). Put plainly: phage incubated with streptavidin-coated beads, washed, released with Factor Xa, plated on TG1 cells; 96,500 phage used.
Sequence of streptavidin (streptavidin-coated magnetic beads, Dynal) (P22629 37-163 limits assumed): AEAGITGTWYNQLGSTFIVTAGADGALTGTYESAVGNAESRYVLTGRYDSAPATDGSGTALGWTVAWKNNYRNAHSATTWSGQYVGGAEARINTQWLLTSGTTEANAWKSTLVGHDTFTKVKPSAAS
The target is the same in test [8]. Kind of test: streptavidin-coated beads capture; phage from host cells grown without added biotin; 109,000 phage used.
Test [9] shares this target. Kind of test: streptavidin-coated beads capture; phage from host cells grown without added biotin.
The target is the same in test [10]. Kind of test: spores (in vivo), streptavidin-coated magnetic beads, washed, plated.
Test [11] has the same target. Kind of test: spores incubated in vitro with BirA, biotin and ATP, then streptavidin-coated beads; input 417,600.
Test [12] shares this target. Put plainly: spores incubated in vitro with BirA, biotin and ATP, then streptavidin-coated beads.
For test [13] the target is unchanged. Kind of test: spores (in vivo), streptavidin-coated magnetic beads, washed, plated; input 843,900.
For test [14] the target is unchanged. Put plainly: spores biotinylated in vivo, streptavidin-coated magnetic beads, washed, plated.
Test [15] shares this target. Put plainly: spores biotinylated in vivo, streptavidin-coated magnetic beads, washed, plated; input 1,075,900.
For test [16] the target is unchanged. Kind of test: spores incubated in vitro with BirA, biotin and ATP, then streptavidin-coated beads; input 919,600.
Test [17] shares this target. Kind of test: spores biotinylated in vivo, streptavidin-coated magnetic beads, washed, plated; input 10,000.
The target is the same in test [18]. Kind of test: spores incubated in vitro with BirA, biotin and ATP, then streptavidin-coated beads; input 234,900.
For test [19] the target is unchanged. Kind of test: spores (in vivo), streptavidin-coated magnetic beads, washed, plated; input 814,900.
For test [20] the target is unchanged. Kind of test: spores biotinylated in vivo, streptavidin-coated magnetic beads, washed, plated; input 919,300.
The target is the same in test [21]. Put plainly: spores incubated in vitro with BirA, biotin and ATP, then streptavidin-coated beads; input 176,900.

Sequence of bacteriophage K (M13 phage displaying on coat protein pIII the 33-residue peptide recognized by BirA) (P69168 19-424): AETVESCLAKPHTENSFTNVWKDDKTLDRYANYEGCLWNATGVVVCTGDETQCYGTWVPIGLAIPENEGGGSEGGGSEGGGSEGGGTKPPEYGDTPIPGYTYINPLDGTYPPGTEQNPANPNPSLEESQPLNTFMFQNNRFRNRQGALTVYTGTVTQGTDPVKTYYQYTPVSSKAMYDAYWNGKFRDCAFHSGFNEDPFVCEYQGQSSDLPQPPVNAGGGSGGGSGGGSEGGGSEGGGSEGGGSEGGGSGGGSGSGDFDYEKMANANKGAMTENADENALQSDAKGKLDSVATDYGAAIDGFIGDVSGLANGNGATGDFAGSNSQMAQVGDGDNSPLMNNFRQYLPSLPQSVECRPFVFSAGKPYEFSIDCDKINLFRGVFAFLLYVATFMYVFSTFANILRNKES
Sequence of bacteriophage G (M13 phage displaying on pIII the control peptide with the lysine recognized by BirA replaced by glycine) (P69168 19-424): as above
Sequence of spores of PY79-BirA-1K (Fusion 1: peptide-K added to the C-terminus of CotB following residue 275) (P07789 1-275): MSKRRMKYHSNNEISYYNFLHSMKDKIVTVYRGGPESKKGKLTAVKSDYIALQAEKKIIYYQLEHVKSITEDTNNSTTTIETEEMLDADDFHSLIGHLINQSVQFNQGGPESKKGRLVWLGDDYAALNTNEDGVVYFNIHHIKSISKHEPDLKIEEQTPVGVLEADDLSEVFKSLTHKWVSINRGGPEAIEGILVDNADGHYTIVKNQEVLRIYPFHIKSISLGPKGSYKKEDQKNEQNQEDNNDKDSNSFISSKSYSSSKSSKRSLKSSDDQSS
Sequence of spores of PY79-BirA-1G (Fusion 1: peptide-G added to the C-terminus of CotB following residue 275) (P07789 1-275): as above
Sequence of spores of PY79-BirA-3G (Fusion 3: Fusion 1 with peptide-G, with the last 41 amino acids of CotB added to its C-terminus) (P07789 whole entry, the tested form may be a part): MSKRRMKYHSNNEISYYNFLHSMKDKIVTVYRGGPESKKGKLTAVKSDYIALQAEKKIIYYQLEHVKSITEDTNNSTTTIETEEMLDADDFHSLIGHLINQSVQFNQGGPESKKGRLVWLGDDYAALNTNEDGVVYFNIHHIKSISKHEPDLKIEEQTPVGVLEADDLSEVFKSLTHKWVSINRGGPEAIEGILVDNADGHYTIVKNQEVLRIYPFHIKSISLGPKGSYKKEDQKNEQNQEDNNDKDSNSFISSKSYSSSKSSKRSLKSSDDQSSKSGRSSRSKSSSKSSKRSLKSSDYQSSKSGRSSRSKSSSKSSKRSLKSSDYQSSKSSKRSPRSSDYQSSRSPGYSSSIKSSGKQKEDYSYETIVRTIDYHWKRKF
Sequence of spores of PY79-BirA-3K (Fusion 3: Fusion 1 with peptide-K, with the last 41 amino acids of CotB added to its C-terminus) (P07789 whole entry, the tested form may be a part): as above
Sequence of spores of PY79-BirA-2K (Fusion 2: peptide-K at the amino end of the first 275 amino acids of CotB) (P07789 1-275): as the sequence (P07789 1-275) above
Sequence of spores of PY79-BirA-2G (Fusion 2: peptide-G at the amino end of the first 275 amino acids of CotB) (P07789 1-275): as above

Regarding “bacteriophage G (M13 phage displaying on pIII the control peptide with the lysine recognized by BirA replaced by glycine) (from UniProt P69168 19-424)”, in test [1], the Ratio (%) is 0.002% and 0.004%. For the same substance, the Bound was found to be 27 phage in test [2] and 7 phage in [5]. The # of bound phage able to bind TG1 cells in test [3] is 13 phage. Moreover, the % bound in test [4] stood at 0.013%.
“bacteriophage K (M13 phage displaying on coat protein pIII the 33-residue peptide recognized by BirA) (from UniProt P69168 19-424)” registered a Bound in test [6] of 2130 phage. Besides, the # of bound phage able to bind TG1 cells in test [7] was found to be 1080 phage. Further, the # of bound phage in test [8] was 850 phage. In addition, the Ratio (%) in test [1] was 0.504% and 0.852%. Moreover, the % bound turned out to be 0.78% in test [9] and 1.11% in [4].
Turning to “spores of PY79-BirA-1G (Fusion 1: peptide-G added to the C-terminus of CotB following residue 275) (from UniProt P07789 1-275)”, the Ratio (%) in test [10] is 0.0118%; in test [12], 0.299%. This substance registered an Out in test [11] of 1250 spores. In addition, the Out (#) in [13] came to 100 spores.
As to “spores of PY79-BirA-1K (Fusion 1: peptide-K added to the C-terminus of CotB following residue 275) (from UniProt P07789 1-275)”, the values for the Ratio (%) in test [14] and in test [12] were 0.0279% and 3.26%, respectively. Further, the Out (#) in test [15] was found to be 300 spores. The Out in [16] was determined as 30000 spores.
For “spores of PY79-BirA-2G (Fusion 2: peptide-G at the amino end of the first 275 amino acids of CotB) (from UniProt P07789 1-275)”, in test [10], the Ratio (%) is 0%.
Regarding “spores of PY79-BirA-2K (Fusion 2: peptide-K at the amino end of the first 275 amino acids of CotB) (from UniProt P07789 1-275)”, the Ratio (%) in [14] amounted to 9.2%. In [17], this substance displayed an Out (#) of 920 spores.
Take “spores of PY79-BirA-3G (Fusion 3: Fusion 1 with peptide-G, with the last 41 amino acids of CotB added to its C-terminus) (from UniProt P07789 1-275; P07789 340-380)”: the Ratio (%) in [10] is 0.0049%; in [12], 0.106%. This substance also returned an Out in [18] of 250 spores. In test [19], this substance returned an Out (#) of 240 spores.
As to “spores of PY79-BirA-3K (Fusion 3: Fusion 1 with peptide-K, with the last 41 amino acids of CotB added to its C-terminus) (from UniProt P07789 1-275; P07789 340-380)”, the Out (#) in test [20] was determined as 260 spores. Moreover, the Ratio (%) turned out to be 0.0283% in test [14] and 0.071% in test [12]. Further, the Out in test [21] was 125 spores.
